Here are results for one molecule from patent publication US20130236470A1 (JUNTENDO EDUCATINAL FOUNDATION, published 2013).

For test [1], the target named is T1, #25 (human).
T1 peptide: WNSQKDFLERRRA
In words: SPOTs peptide membrane (HLA-DR epitope peptide library).

Test [2] concerns the target T2, #38 (human).
T2 peptide: WNSQKDLLERRRA
The test is described as above.

The target of test [3] is T3, #34 (human).
T3 peptide: WNSQKDLLEQRRA
Described as above.

Test [4] deals with T4, peptide sequence WNSQKDILEQKRG of the HLA-DR β-chain (human).
T4 construct: on the microarray as overlapping 8- to 12-mers
T4 peptide: WNSQKDILEQKRG
Put plainly: peptide microarray of overlapping HLA-DR52 β chain peptides. Here is the method: (§1) Overlapping peptides consisting of 8 to 12 amino acids shifted by one amino acid were chemically synthesized from their C termini on an array using the amino acid sequence of an HLA-DR52 β chain having the highest homology as a result of analysis using software Mascot (Shimadzu Techno-Research, Inc.) to prepare a peptide microarray (LC Sciences, LLC, Texas, US). First, the array was blocked by immersion overnight at 4° C. in a SuperBlock (pH 7.0) (Pierce Biotechnology Inc.) solution containing 0.05% Tween-20 to prevent nonspecific antibody binding. […] The array was washed with the washing solution for 20 minutes and then incubated at 25° C. for 1 hour in a 10 ng/mL Cy5-labeled goat anti-mouse IgG antibody solution. Cy5 was assayed at a wavelength of 635 nm using a microarray scanner (PMT 700 V). Since nonspecific binding to a peptide sequence having a C-terminal tryptophan residue was observed, this sequence was omitted and peptide sequences showing specific binding were then analyzed. […] A peptide sequence ([…]: SEQ ID NO: 2) of the HLA-DR β-chain to which an antibody described in WO2003/033538 bind is located 6 amino acid residues before the second N-terminal cysteine residue.

Test [5] deals with T5, TRAIL death receptor DR5 (UniProt O14763 56-440, limits assumed).
T5 construct: whole, on cells; also called DR5 receptor
Put plainly: flow cytometry on BHK cells transfected with the DR5 receptor gene. Here is the method:
(§2) Hamster-derived BHK cells transfected with the DR4 receptor or DR5 receptor gene were incubated with the antibody of the present invention for 1 hour and analyzed by flow cytometry in the same way as in Example 6.
(§3) In order to confirm whether the antibody of the present invention targets a TNF-related apoptosis inducing ligand (TRAIL) death receptor DR4 or DR5 known as a death receptor (cell death-inducing antigen), the antibody of the present invention was examined for its ability to stain hamster-derived BHK cells transfected with the DR4 receptor or DR5 receptor gene in the same way as above. As a result, the cells were stained by a known antibody against DR4 receptor or DR5 receptor (red line), but not stained by the antibody of the present invention (FIG. 9).
For orientation: Flow cytometry measures light scatter and fluorescence of single cells or particles in a stream.

For test [6], the target named is T6, TRAIL death receptor DR4 (UniProt O00220 24-468, limits assumed).
T6 construct: whole, on cells; also called DR4 receptor
T6 sequence (looked up): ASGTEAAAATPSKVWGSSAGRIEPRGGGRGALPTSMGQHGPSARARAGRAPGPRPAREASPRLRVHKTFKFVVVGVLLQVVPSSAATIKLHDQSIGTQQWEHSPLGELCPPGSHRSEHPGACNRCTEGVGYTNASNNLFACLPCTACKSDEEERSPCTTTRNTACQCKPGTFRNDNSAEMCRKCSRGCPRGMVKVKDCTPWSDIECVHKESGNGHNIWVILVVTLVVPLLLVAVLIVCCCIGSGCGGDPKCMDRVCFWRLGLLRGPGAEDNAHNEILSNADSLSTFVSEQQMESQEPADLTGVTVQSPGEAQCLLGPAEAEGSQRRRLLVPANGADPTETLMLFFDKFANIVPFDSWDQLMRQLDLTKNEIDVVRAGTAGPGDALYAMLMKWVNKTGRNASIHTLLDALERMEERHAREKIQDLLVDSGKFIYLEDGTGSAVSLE
In words: flow cytometry on BHK cells transfected with the DR4 receptor gene. Here is the method: as §2, §3

In test [7] the target is T7, DR12-15 (human).
T7 construct: HLA-DR12 overlapping peptide on SPOTs membrane
T7 peptide: KVTVYPSKTQPLQHH
Put plainly: SPOTs peptide membrane, biotinylated 4713 antibody 1 µg/mL. Here is the method: (§4) In order to reconfirm the results obtained using the peptide microarray, HLA-DR expressed by L428 cells was analyzed. […] Next, overlapping peptides were synthesized from the amino acid sequence of HLA-DR12 to prepare a custom SPOTs nitrocellulose membrane (Sigma-Aldrich Corp.). The membrane was rinsed with methanol for 5 minutes, then washed with a […] (TBS), and incubated at room temperature for 2 hours for blocking. […] The membrane was washed and then incubated for 2 hours in a solution of peroxidase (HRP)-labeled streptavidin (manufactured by Dako Japan Inc.) diluted 3000-fold with TBS. After washing, positive spots were detected using ECL Prime Western Blotting Detection kit (manufactured by GE Healthcare Japan Corp.) and a chemiluminescence detector (LAS-4000) (Table 3). As a result, the most strongly reacted peptide was DR12-26, followed by DR12-6 and DR12-13. […] Although an HLA-DR12-derived peptide to which the antibody described in WO2003/033538 binds was also arrayed as DR12-28, no binding was seen (Table 3).

Test [8] addresses T8, DR12-2 (human).
T8 construct: HLA-DR12 overlapping peptide on SPOTs membrane
T8 peptide: SSLAALTVTLMVLSS
The description is as above. Here is the method:
as §4

Test [9] concerns the target T9, DR12-7 (human).
T9 construct: HLA-DR12 overlapping peptide on SPOTs membrane
T9 peptide: LLERHFHNQEELLRF
The description is as above. Here is the method:
as §4

Test [10] has as its target T10, DR12-3 (human).
T10 construct: HLA-DR12 overlapping peptide on SPOTs membrane
T10 peptide: LMVLSSRLAFAGDTR
The description is as above. Here is the method: as §4

Test [11] deals with T11, DR12-26 (human).
T11 construct: HLA-DR12 peptide on SPOTs membrane; also called DR-26
T11 peptide: RNQKGHSGLQPRGFLS
The description is as above. Here is the method: as §4

Test [12] addresses T12, DR12-13 (human).
T12 construct: HLA-DR12 overlapping peptide on SPOTs membrane; also called DR-13
T12 peptide: RHNYGAVESFTVQRR
Described as above. Here is the method: as §4

Test [13] has as its target T13, DR12-25 (human).
T13 construct: HLA-DR12 overlapping peptide on SPOTs membrane
T13 peptide: WRARSESAQSK
The test is described as above. Here is the method:
as §4

In test [14] the target is T14, DR12-4 (human).
T14 construct: HLA-DR12 overlapping peptide on SPOTs membrane
T14 peptide: FAGDTRPRFLEYSTG
Described as above. Here is the method: as §4

Test [15] concerns the target T15, DR12-14 (human).
T15 construct: HLA-DR12 overlapping peptide on SPOTs membrane
T15 peptide: FTVQRRVHPKVTVYP
The description is as above. Here is the method: as §4

The target of test [16] is T16, DR12-6 (human).
T16 peptide: FFNGTERVRLLERHF
The description is as above. Here is the method:
as §4

Test [17] addresses T17, DR12-17 (human).
T17 construct: HLA-DR12 overlapping peptide on SPOTs membrane
T17 peptide: VCSVSGFYPGSIEVR
Described as above. Here is the method: as §4

The target of test [18] is T18, HLA-DR expressed by L428 cells (human).
T18 construct: whole, on cells; The assay is on L428 cells; also called HLA-DR12; HLA-DR on L428 cells
In words: flow cytometry on L428 cells, serially diluted antibody; reference LN3. Here is the method:
The ability of each antibody to bind to L428 cells was analyzed by incubation with each of serially diluted antibody solutions using a flow cytometer. […] For cell death induction, the uptake of propidium iodide (PI) was analyzed using a flow cytometer.

Test [19] addresses T19, peptide CRHNYGVGESFT (human).
T19 construct: Region of the HLA-DR52 β chain on the peptide microarray (overlapping 8- to 12-mers)
T19 peptide: CRHNYGVGESFT
Put plainly: peptide microarray of overlapping HLA-DR52 β chain peptides, 5 µg/mL 4713 mAb. Here is the method: as §1

B1: 4713 mAb (antibody, mouse IgG1, V domains shown)
VH: DVQLQESGPGLVKPSQSLSLTCTVTGYSITNDYAWNWIRQFPGNKLEWMGYISYNDFTYYNPSLKSRISITRDTSKNQFFLQLNSVTAEDTATYYCVSERLRLVNHVMDYWGQGTSVIVSS
VL: QIVLTQSPPIMSASPGEKVTMTCSASSSVNYMHWHQQKSGTSPKKWIYDTSKLISGVPARFSGSGSGTSYSLTISSVEAEDAATYYCQQWSSYPFTFGSGTKLEIK
modifications: Used biotinylated on the SPOTs membranes; the site is not given.
notes: also called monoclonal antibody of the present invention
Consider B1, for which the binding result in test [1] is given as “binds”; in test [2], “binds”; in test [3], “binds”; in test [4] it was “no binding (tested: 5 µg/mL)”; in [5], “no binding”; in [6] it was “no binding”. Besides, the binding result in test [7], in test [8], in test [9], in test [10], in test [11] and in [12] was “binds” each time. The binding result in test [13], in [14], in test [15], in test [16], in test [17] and in test [19] was “binds” in each case. The “fold lower concentration for binding than LN3” value in test [18] is about 10 times.
